Results from patent US20240255507A1 (SYSMEX, published 2024).

B1: REGN10933 (antibody, V domains shown)
VH: QVQLVESGGGLVKPGGSLRLSCAASGFTFSDYYMSWIRQAPGKGLEWVSYITYSGSTIYYADSVKGRFTISRDNAKSSLYLQMNSLRAEDTAVYYCARDRGTTMVPFDYWGQGTLVTVSS
VL: DIQMTQSPSSLSASVGDRVTITCQASQDITNYLNWYQQKPGKAPKLLIYAASNLETGVPSRFSGSGSGTDFTFTISGLQPEDIATYYCQQYDNLPLTFGGGTKVEIKR
B2: REGN10987 (antibody, V domains shown)
VH: QVQLVESGGGVVQPGRSLRLSCAASGFTFSNYAMYWVRQAPGKGLEWVAVISYDGSNKYYADSVKGRFTISRDNSKNTLYLQMNSLRTEDTAVYYCASGSDYGDYLLVYWGQGTLVTVSS
VL: QSALTQPASVSGSPGQSITISCTGTSSDVGGYNYVSWYQQHPGKAPKLMIYDVSKRPSGVSNRFSGSKSGNTASLTISGLQSEDEADYYCNSLTSISTWVFGGGTKLTVLR
B3: CR3022 (antibody, V domains shown)
VH: QMQLVQSGTEVKKPGESLKISCKGSGYGFITYWIGWVRQMPGKGLEWMGIIYPGDSETRYSPSFQGQVTISADKSINTAYLQWSSLKASDTAIYYCAGGSGISTPMDVWGQGTTVTVSS
VL: DIQMTQSPSSLSASVGDRVTITCRASQSIYSALNWYQQKPGKAPKLLIYAASALQSGVPSRFSGSGSGTDFTLTISSLQPEDFATYYCQQTDIHPYTFGQGTKVEIKR
B4: CV30 (antibody, V domains shown)
VH: EVQLVESGGGLIQPGGSLRLSCAASGVIVSSNYMSWVRQAPGKGLEWVSVIYSGGSTYYADSVKGRFTISRDNSKNTLYLQMNSLRAEDTAVYYCARDLDVSGGMDVWGQGTTVTVSS
VL: not shown
B5: HKU9 wild-type RBD (other)
chain: SYCTPPYSVLQDPPQPVVWRRYMLYDCVFDFTVVVDSLPTHQLQCYGVSPRRLASMCYGSVTLDVMRINETHLNNLFNRVPDTFSLYNYALPDNFYGCLHAFYLNSTAPYAVANRFPIKPGGRQSNSAFIDTVINAAHYSPFSYVYGLAVITLKPAAGSKLVCPVAN
B6: BD23 (antibody, V domains shown)
VH: QVQLVQSGSELKKPGASVKVSCKASGYTFTSYAMNWVRQAPGQGLEWMGWINTNTGNPTYAQGFTGRFVFSLDTSVSTAYLQISSLKAEDTAVYYCARPQGGSSWYRDYYYGMDVWGQGTTVTVSS
VL: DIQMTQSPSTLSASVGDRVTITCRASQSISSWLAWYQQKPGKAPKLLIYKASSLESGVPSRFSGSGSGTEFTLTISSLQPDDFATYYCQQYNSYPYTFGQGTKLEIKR

Assays:
HKU9 wild-type RBD [1] = molecular target: B5; test: ELISA, antigen coated
HKU9 wild-type RBD [2] = molecular target: B5; test: ELISA, antigen coated, binder 1 µg/mL, chemiluminescence
Zaria wild-type RBD [3] = molecular target: T1, Zaria wild-type RBD (coronavirus Zaria strain (Hibecovirus …)); test: ELISA, antigen coated
GCCDC1 wild-type RBD [4] = molecular target: T2, GCCDC1 wild-type RBD (coronavirus GCCDC1 strain (Nobecovirus …)); test: ELISA, antigen coated
Hp wild-type RBD [5] = molecular target: T3, Hp wild-type RBD (coronavirus Hp strain (Hibecovirus …)); test: ELISA, antigen coated
Zaria wild-type RBD [6] = molecular target: T1, Zaria wild-type RBD; test: ELISA, antigen coated, binder 1 µg/mL, chemiluminescence
GCCDC1 wild-type RBD [7] = molecular target: T2, GCCDC1 wild-type RBD; test: as above
Hp wild-type RBD [8] = molecular target: T3, Hp wild-type RBD; test: as above
SARS-CoV-2 wild-type RBD = SARS-CoV-2 wild-type RBD (SARS-CoV-2, UniProt P0DTC2 319-541); test: as above
[9] = molecular target: T4, ACE2-hFc (AC2-H 5257, Acrobiosystems) (human, UniProt Q9BYF1 18-740); test: ELISA, antigen coated
T4 construct: also called ACE2-Fc
T4 sequence (Q9BYF1 18-740 limits assumed): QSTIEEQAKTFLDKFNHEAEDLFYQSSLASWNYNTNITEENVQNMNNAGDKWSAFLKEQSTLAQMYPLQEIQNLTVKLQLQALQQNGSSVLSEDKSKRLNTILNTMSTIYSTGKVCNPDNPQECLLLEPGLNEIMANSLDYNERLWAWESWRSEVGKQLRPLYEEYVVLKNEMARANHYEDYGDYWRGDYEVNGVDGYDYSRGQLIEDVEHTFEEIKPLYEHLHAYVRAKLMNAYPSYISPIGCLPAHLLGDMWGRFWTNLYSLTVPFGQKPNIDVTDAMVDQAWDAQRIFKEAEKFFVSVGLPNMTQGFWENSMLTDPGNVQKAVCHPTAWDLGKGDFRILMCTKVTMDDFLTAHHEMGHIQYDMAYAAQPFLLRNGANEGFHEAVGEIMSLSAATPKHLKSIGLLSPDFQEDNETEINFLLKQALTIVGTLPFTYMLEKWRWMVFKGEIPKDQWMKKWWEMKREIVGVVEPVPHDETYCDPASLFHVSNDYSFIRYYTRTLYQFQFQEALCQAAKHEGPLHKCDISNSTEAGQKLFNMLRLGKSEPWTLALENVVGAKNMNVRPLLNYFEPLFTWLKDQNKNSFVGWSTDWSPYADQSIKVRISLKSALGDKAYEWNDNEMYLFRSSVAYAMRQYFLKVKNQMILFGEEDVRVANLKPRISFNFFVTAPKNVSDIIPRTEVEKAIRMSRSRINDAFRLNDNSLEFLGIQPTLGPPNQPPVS

Row | Binder | binding result (HKU9 wild-type RBD [1]) | signal intensity (HKU9 wild-type RBD [2]) | binding result (Zaria wild-type RBD [3]) | binding result (GCCDC1 wild-type RBD [4]) | binding result (Hp wild-type RBD [5]) | signal intensity (Zaria wild-type RBD [6]) | signal intensity (GCCDC1 wild-type RBD [7]) | signal intensity (Hp wild-type RBD [8]) | signal intensity (SARS-CoV-2 wild-type RBD) | binding result [9]
1 | B1 | no binding (tested: 1 µg/mL) | 943 | – | – | – | – | – | – | – | –
2 | B2 | no binding (tested: 1 µg/mL) | 1120 | – | – | – | – | – | – | – | –
3 | B3 | no binding (tested: 1 µg/mL) | 433 | no binding (tested: 1 µg/mL) | no binding (tested: 1 µg/mL) | no binding (tested: 1 µg/mL) | 330 | 100 | 100 | 1.07e+06 | –
4 | B4 | no binding (tested: 1 µg/mL) | 583 | no binding (tested: 1 µg/mL) | no binding (tested: 1 µg/mL) | no binding (tested: 1 µg/mL) | 100 | 130 | 150 | 921000 | –
5 | B5 | – | – | – | – | – | – | – | – | – | no binding (tested: 1 µg/mL)
6 | B6 | no binding (tested: 1 µg/mL) | 803 | – | – | – | – | – | – | – | –
